In doi:10.1101/2020.08.24.265033, “Dipeptidyl peptidase 9 triggers BRCA2 degradation by the N-degron pathway to promote DNA-damage repair” (bioRxiv, 2020):

B1: BRCA2_(1-40) synthetic peptide (first forty amino acids of BRCA2) (peptide, UniProt P51587 1-40, looked up)
peptide: MPIGSKERPTFFEIFKTRCNKADLGPISLNWFEELSSEAP
notes: BRCA2, human, residues 1-40; also called BRCA2_(1-40) N-terminal peptide; BRAC2_(1-40) peptide; source: synthetic peptide
B2: BRCA2_(3-40) synthetic peptide (truncated, lacking Met1-Pro2) (peptide, UniProt P51587 3-40, looked up)
peptide: IGSKERPTFFEIFKTRCNKADLGPISLNWFEELSSEAP
notes: BRCA2, human, residues 3-40; also called truncated BRCA2_(3-40) peptide; source: synthetic peptide

Target: T1, Human recombinant DPP9 (dipeptidyl peptidase 9), His-tagged (human, UniProt Q86TI2 1-863)
T1 construct: Dipeptidyl peptidase 9, human, recombinant; Held on a Ni chip by its His tag in SPR; used in solution in the pull-down; also called purified DPP9; His-tagged DPP9; source: Sf9 cells, purified essentially as described in Pilla et al. 2012
Test: SPR; His-tagged DPP9 immobilised on a Ni-loaded NiHC1000m chip; serial dilution of BRCA2 peptides injected; 20 mM HEPES pH 7.4, 150 mM NaCl, 50 µM EDTA, 0.005 % TWEEN-20; 20°C; equilibrium binding analysis
Details: both partners purified

T1 sequence (Q86TI2 whole entry): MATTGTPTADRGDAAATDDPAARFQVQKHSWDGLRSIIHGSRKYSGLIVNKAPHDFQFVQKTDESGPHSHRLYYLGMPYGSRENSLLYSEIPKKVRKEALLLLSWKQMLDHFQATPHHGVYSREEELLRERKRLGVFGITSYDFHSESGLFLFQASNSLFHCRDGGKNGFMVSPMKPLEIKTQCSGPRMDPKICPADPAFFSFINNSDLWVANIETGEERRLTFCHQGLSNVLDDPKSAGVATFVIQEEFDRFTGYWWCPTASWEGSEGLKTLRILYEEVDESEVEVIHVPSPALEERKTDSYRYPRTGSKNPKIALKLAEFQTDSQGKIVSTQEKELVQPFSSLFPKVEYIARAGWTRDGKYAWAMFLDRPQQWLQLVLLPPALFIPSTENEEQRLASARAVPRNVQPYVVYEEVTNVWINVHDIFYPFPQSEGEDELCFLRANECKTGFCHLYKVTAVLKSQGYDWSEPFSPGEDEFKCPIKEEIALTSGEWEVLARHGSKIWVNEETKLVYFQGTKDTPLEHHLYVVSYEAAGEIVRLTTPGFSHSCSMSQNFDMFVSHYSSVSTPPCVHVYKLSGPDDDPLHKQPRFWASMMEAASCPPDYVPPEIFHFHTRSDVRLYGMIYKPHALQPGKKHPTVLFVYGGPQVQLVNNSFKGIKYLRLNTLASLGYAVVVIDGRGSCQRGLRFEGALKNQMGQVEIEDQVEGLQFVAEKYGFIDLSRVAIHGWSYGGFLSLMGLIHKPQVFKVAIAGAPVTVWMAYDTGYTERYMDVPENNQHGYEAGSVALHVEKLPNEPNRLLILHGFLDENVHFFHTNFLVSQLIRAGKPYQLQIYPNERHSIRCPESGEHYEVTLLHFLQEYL

Binder | Kd [µM]
B1 | 16.8 ± 0.7
B2 | 75.3 ± 4.8
